Publication PMC7023257

Target: SecY(S329C)EG (E. coli) (UniProt P0AGA2)

characteristic lifetime of the open channels at φ = −140 mV after cross-linking by KTT: 14 s
Binder: MKKTAIAIAVALAGFATVAQC
